Experimental data taken from patent publication US7588931B2, “High arachidonic acid producing strains of Yarrowia lipolytica” (E. I. du Pont de Nemours and Company, priority 2004, dated 2009).

B1: GPD: Y. lipolytica glyceraldehyde-3-phosphate dehydrogenase promoter, SEQ ID NO:158 (nucleic acid, listed as Yarrowia lipolytica)
DNA: GACGCAGTAGGATGTCCTGCACGGGTCTTTTTGTGGGGTGTGGAGAAAGGGGTGCTTGGAGATGGAAGCCGGTAGAACCGGGCTGCTTGTGCTTGGAGATGGAAGCCGGTAGAACCGGGCTGCTTGGGGGGATTTGGGGCCGCTGGGCTCCAAAGAGGGGTAGGCATTTCGTTGGGGTTACGTAATTGCGGCATTTGGGTCCTGCGCGCATGTCCCATTGGTCAGAATTAGTCCGGATAGGAGACTTATCAGCCAATCACAGCGCCGGATCCACCTGTAGGTTGGGTTGGGTGGGAGCACCCCTCCACAGAGTAGAGTCAAACAGCAGCAGCAACATGATAGTTGGGGGTGTGCGTGTTAAAGGAAAAAAAAGAAGCTTGGGTTATATTCCCGCTCTATTTAGAGGTTGCGGGATAGACGCCGACGGAGGGCAATGGCGCCATGGAACCTTGCGGATATCGATACGCCGCGGCGGACTGCGTCCGAACCAGCTCCAGCAGCGTTTTTTCCGGGCCATTGAGCCGACTGCGACCCCGCCAACGTGTCTTGGCCCACGCACTCATGTCATGTTGGTGTTGGGAGGCCACTTTTTAAGTAGCACAAGGCACCTAGCTCGCAGCAAGGTGTCCGAACCAAAGAAGCGGCTGCAGTGGTGCAAACGGGGCGGAAACGGCGGGAAAAAGCCACGGGGGCACGAATTGAGGCACGCCCTCGAATTTGAGACGAGTCACGGCCCCATTCGCCCGCGCAATGGCTCGCCAACGCCCGGTCTTTTGCACCACATCAGGTTACCCCAAGCCAAACCTTTGTGTTAAAAAGCTTAACATATTATACCGAACGTAGGTTTGGGCGGGCTTGCTCCGTCTGTCCAAGGCAACATTTATATAAGGGTCTGCATCGCCGGCTCAATTGAATCTTTTTTCTTCTTCTCTTCTCTATATTCATTCTTGAATTAAACACACATCAACATG
modifications: misc_feature: Promoter GPD
B2: GPDIN: glyceraldehyde-3-phosphate dehydrogenase + intron promoter, SEQ ID NO:159 (nucleic acid, listed as Yarrowia lipolytica)
DNA: AAACACGCAGTAGGATGTCCTGCACGGGTCTTTTTGTGGGGTGTGGAGAAAGGGGTGCTTGGAGATGGAAGCCGGTAGAACCGGGCTGCTTGTGCTTGGAGATGGAAGCCGGTAGAACCGGGCTGCTTGGGGGGATTTGGGGCCGCTGGGCTCCAAAGAGGGGTAGGCATTTCGTTGGGGTTACGTAATTGCGGCATTTGGGTCCTGCGCGCATGTCCCATTGGTCAGAATTAGTCCGGATAGGAGACTTATCAGCCAATCACAGCGCCGGATCCACCTGTAGGTTGGGTTGGGTGGGAGCACCCCTCCACAGAGTAGAGTCAAACAGCAGCAGCAACATGATAGTTGGGGGTGTGCGTGTTAAAGGAAAAAAAAGAAGCTTGGGTTATATTCCCGCTCTATTTAGAGGTTGCGGGATAGACGCCGACGGAGGGCAATGGCGCTATGGAACCTTGCGGATATCCATACGCCGCGGCGGACTGCGTCCGAACCAGCTCCAGCAGCGTTTTTTCCGGGCCATTGAGCCGACTGCGACCCCGCCAACGTGTCTTGGCCCACGCACTCATGTCATGTTGGTGTTGGGAGGCCACTTTTTAAGTAGCACAAGGCACCTAGCTCGCAGCAAGGTGTCCGAACCAAAGAAGCGGCTGCAGTGGTGCAAACGGGGCGGAAACGGCGGGAAAAAGCCACGGGGGCACGAATTGAGGCACGCCCTCGAATTTGAGACGAGTCACGGCCCCATTCGCCCGCGCAATGGCTCGCCAACGCCCGGTCTTTTGCACCACATCAGGTTACCCCAAGCCAAACCTTTGTGTTAAAAAGCTTAACATATTATACCGAACGTAGGTTTGGGCGGGCTTGCTCCGTCTGTCCAAGGCAACATTTATATAAGGGTCTGCATCGCCGGCTCAATTGAATCTTTTTTCTTCTTCTCTTCTCTATATTCATTCTTGAATTAAACACACATCAACATGGCCATCAAAGTCGGTATTAACGGATTCGGGCGAATCGGACGAATTGTGAGTACCATAGAAGGTGATGGAAACATGACCCAACAGAAACAGATGACAAGTGTCATCGACCCACCAGAGCCCAATTGAGCTCATACTAACAGTCGACAACCTGTCGAACCAATTGATGACTCCCCGACAATGTACTAACACAGGTCCTGCCC
modifications: misc_feature: Promoter GPDIN

Columns and labels:
Type in all cases: cell-based, Yarrowia lipolytica
[1] = tested on: β-glucuronidase (GUS) reporter; assay: Relative promoter activity rank from comparative GUS reporter studies (histochemical, fluorometric and/or Real Time PCR); details: relative to other promoters
Procedure: The activity of GPM is about the same as TEF, while the activity of GPD, FBA, FBAIN, FBAINm, GPDIN, GPAT, YAT1 and EXP1 are all greater than TEF (activity is quantified in a relative manner in the column titled “Activity Rank”, wherein a ‘1’ corresponds to the promoter with lowest activity, while a ‘7’ corresponds to the promoter with highest activity). […] GUS activity in each expressed construct was measured by histochemical and/or fluorometric assays (Jefferson, R. A. Plant Mol. Biol. Reporter 5:387-405 (1987)) and/or by use of Real Time PCR.

GUS mRNA = assay: Comparative analysis of promoters by quantitative (Real Time) PCR of GUS mRNA; details: for transcription activity relative to the TEF promoter: after 24 hrs in HGM, ATCC #76982 strains
Procedure: The transcriptional activities of the TEF, GPD, GPDIN, FBA and FBAIN promoters were determined in Y. lipolytica containing the pY5-30, PYZGDG, pDMW222, pDMW212 and pDMW214 constructs by quantitative PCR analyses. This required isolation of RNA and real time RT-PCR.
More specifically, Y. lipolytica ATCC #76982 strains containing pY5-30, PYZGDG, pDMW222, pDMW212 and pDMW214 were grown from single colonies in 6 mL of MM in 25 mL Erlenmeyer flasks for 16 hrs at 30° C. Each of the 6 mL starter cultures was then added to individual 500 mL flasks containing 140 mL HGM and incubated at 30° C. for 4 days. In each interval of 24 hrs, 1 mL of each culture was removed from each flask to measure the optical density, 27 mL was removed and used for a fluorometric GUS assay (as described above), and two aliquots of 1.5 mL were removed for RNA isolation. The culture for RNA isolation was centrifuged to produce a cell pellet.
The RNA was isolated from Yarrowia strains according to the modified Qiagen RNeasy mini protocol (Qiagen, San Diego, Calif.). Briefly, at each time point for each sample, 340 μL of Qiagen's buffer RLT was used to resuspend each of the two cell pellets. The buffer RLT/cell suspension mixture from each of the two tubes was combined in a bead beating tube (Bio101, San Diego, Calif.). About 500 μL of […] glass beads was added to the tube and the cells were disrupted by bead beating 2 min at setting 5 (BioPulverizer, Bio101 Company, San Diego, Calif.). The disrupted cells were then pelleted by centrifugation at 14,000 rpm for 1 min and 350 μl of the supernatent was transferred to a new microcentrifuge tube. Ethanol (350 μL of 70%) was added to each homogenized lysate. After gentle mixing, the entire sample was added to a RNeasy mini column in a 2 mL collection tube. The sample was centrifuged for 15 sec at 10,000 rpm. Buffer RW1 (350 μL) was added to the RNeasy mini column and the column was centrifuged for 15 sec at 10,000 rpm to wash the cells. The eluate was discarded. Qiagen's DNasel stock solution (10 μL) was added to 70 μl of Buffer RDD and gently mixed. This entire DNase solution was added to the RNeasy mini column and incubated at room temperature for 15 min. After the incubation step, 350 μL of Buffer RW1 was added to the mini column and the column was centrifuged for 15 sec at 10,000 rpm. The column was washed twice with 700 μL […]. RNase-free water (50 μL) was added to the column. The column was centrifuged for 1 min at 10,000 rpm to elute the RNA.
A two-step RT-PCR protocol was used, wherein total Yarrowia RNA was first converted to cDNA and then cDNA was analyzed using Real Time PCR. The conversion to cDNA was performed using Applied Biosystems' High Capacity cDNA Archive Kit (PN#4322171; Foster City, Calif.) and Molecular Biology Grade water from MediaTech, Inc. (PN# 46-000-Con; Holly Hill, Fla.). Total RNA from Yarrowia (100 ng) was converted to cDNA by combining it with 10 μl of RT buffer, 4 μl of 25×dNTPs, 10 μl 10× Random Hexamer primers, 5 μl Multiscribe Reverse Transcriptase and 0.005 μl RNase Inhibitor, and brought to a total reaction volume of 100 μl with water. The reactions were incubated in a thermocycler for 10 min at 25° C. followed by 2 hrs at 37° C. The cDNA was stored at −20° C. prior to Real Time analysis.
Real Time analysis was performed using the SYBR Green PCR Master Mix from Applied Biosystems (PN# 4309155). The Reverse Transcription reaction (2 μl) was added to 10 μl of 2×SYBR PCR Mix, 0.2 μl of 100 μM Forward and Reverse primers for either URA (i.e., primers YL-URA-16F and YL-URA-78R [SEQ ID NOs:183 and 184]) or GUS (i.e., primers GUS-767F and GUS-891R [SEQ ID NO:185 and 186]) and 7.2 μl water. The reactions were thermocycled for 10 min at 95° C. followed by 40 cycles of 95° C. for 5 sec and 60° C. for 1 min in an ABI 7900 Sequence Detection System instrument. Real time fluorescence data was collected during the 60° C. extension during each cycle. […]

[2] = tested on: β-glucuronidase (GUS) reporter; assay: Comparative analysis of promoters by histochemical analysis of GUS expression; details: ATCC #76982 strains, MM, FIG. 5B
Procedure: Comparative studies investigating the promoter activities of the TEF, GPD, GPDIN, GPM, GPAT, FBA, FBAIN and YAT1 promoters were performed, by synthesizing constructs comprising each promoter and the E. coli gene encoding β-glucuronidase (GUS) as a reporter gene (Jefferson, R. A. Nature. 14(342):837-838 (1989)). Then, GUS activity was measured by histochemical and fluorometric assays (Jefferson, R. A. Plant Mol. Biol. Reporter 5:387-405 (1987)) and/or by using Real Time PCR for mRNA quantitation.
Yarrowia lipolytica ATCC #76982 strains containing plasmids pY5-30, pYZGDG, pYZGMG, pDMW212 and pDMW214 were grown from single colonies in 3 mL MM at 30° C. to an OD600˜1.0. Then, 100 μl of cells were collected by centrifugation, resuspended in 100 μl of histochemical staining buffer, and incubated at 30° C. Staining buffer was prepared by dissolving 5 mg of 5-bromo-4-chloro-3-indolyl glucuronide (X-Gluc) in 50 μl dimethyl formamide, followed by the addition of 5 mL 50 mM NaPO4, pH 7.0.
In a separate experiment, Y. lipolytica Y2034 strains containing plasmids pY5-30, pYGPAT-GUS, pYAT-GUS and pDMW214 were grown from single colonies in 5 mL SD media at 30° C. for 24 hrs to an OD600˜8.0. Then, 1 mL of cells were collected by centrifugation. The remaining cultures were centrifuged and washed 2× with HGM, resuspended in 5 mL each of HGM and allowed to grow at 30° C. further. After 24 and 120 hrs, ˜0.25 mL of each culture were centrifuged to collect the cells. Cell samples were resuspended individually in 100 μl of histochemical staining buffer (supra). Zymolase 20T (5 μl of 1 mg/mL; ICN Biomedicals, Costa Mesa, Calif.) was added to each, and the mixture incubated at 30° C. […]

Molecule | Activity “Rank” [1] | transcription activity relative to the TEF promoter (GUS mRNA) | promoter activity by histochemical staining [2] | transcriptional activity relative to the TEF promoter (GUS mRNA; final day of the 4 day experiment in HGM)
B1 | 2 | about 2 times | active | –
B2 | 3 | ~4.4 times | – | ~2.6 times
